{"source": "patent US20200123576", "about": "“Platform for developing stable mammalian cell lines” (Icosagen Cell Factory OÜ, published 2020)", "binders": {"B1": {"name": "BPV1 E2 binding sites (E2BS) (dsDNA)", "DNA 1": "ACCGTTGCCGGTCGGATCTGTACCGTTGCCGGTCGGATCTGTACCGTTGCCGGTCGGATCTGTACCGTTGCCGGTCGGATCTGTACCGTTGCCGGTCGGATCTGTACCGTTGCCGGTCGGATCTGTACCGTTGCCGGTCGGATCTGTACCGTTGCCGGTCGGATCTGTACCGTTGCCGGTC", "DNA 2": "GACCGGCAACGGTACAGATCCGACCGGCAACGGTACAGATCCGACCGGCAACGGTACAGATCCGACCGGCAACGGTACAGATCCGACCGGCAACGGTACAGATCCGACCGGCAACGGTACAGATCCGACCGGCAACGGTACAGATCCGACCGGCAACGGTACAGATCCGACCGGCAACGGT"}}, "target": "BPV1 E2 protein (Bovine papillomavirus 1, UniProt P03122 P03122:1-410)", "sequence (P03122 whole entry, one chain of several)": "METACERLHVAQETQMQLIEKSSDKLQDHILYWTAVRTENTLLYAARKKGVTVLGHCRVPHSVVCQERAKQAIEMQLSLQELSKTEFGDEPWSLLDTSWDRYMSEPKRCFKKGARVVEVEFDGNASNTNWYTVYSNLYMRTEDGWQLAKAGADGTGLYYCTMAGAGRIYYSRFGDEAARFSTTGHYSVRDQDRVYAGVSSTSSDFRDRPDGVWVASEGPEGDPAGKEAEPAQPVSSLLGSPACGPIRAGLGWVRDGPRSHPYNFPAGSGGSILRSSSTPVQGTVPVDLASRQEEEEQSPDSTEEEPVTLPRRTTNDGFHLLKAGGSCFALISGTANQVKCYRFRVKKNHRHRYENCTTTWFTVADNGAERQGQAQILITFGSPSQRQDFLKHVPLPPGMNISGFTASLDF", "test": "cell_activity", "details": "chain copies: 2"}
{"binder": "B1", "values": [{"measurement": "binding signal", "result": "~3.5", "unit": "fold"}]}
